US20250375530A1, “ROR1/EGFR BI-SPECIFIC ANTIGEN BINDING MOLECULES” (ALMAC DISCOVERY LIMITED, priority 2022, published 2025)
Numbering of substitutions follows the chain as printed.

B1: P3A1 G1 NAG8: P3A1 G1 loop variant VNAR, SEQ ID NO: 81 (protein)
chain: TRVDQSPSSLSASVGDRVTITCVLTGTKYGLYATYWYRKNPGSPNKDRMIIGGRYSESVNNGTKSFTLTISSLQPEDSATYYCRAREARHPWLRQWYDGAGTKVEIKQACKAHHHHHHGAEFEQKLISEEDLG
B2: P3A1 G1: humanised version of the ROR1 binding VNAR P3A1, SEQ ID NO: 114 (protein)
chain: TRVDQTPSSLSASVGDRVTITCVLTDTSYGLYSTYWYRKNPGSSNKEQISISGRYSESVNKGTKSFTLTISSLQPEDSATYYCRAREARHPWLRQWYDGAGTKVEIKQASGAHHHHHHGAEFEQKLISEEDL
B3: P3A1 G1 AE3: P3A1 G1 loop variant VNAR, SEQ ID NO: 77 (protein)
chain: TRVDQSPSSLSASVGDRVTITCVLTGTRYGLYSTYWYRKNPGSSDEERISISGRYSESVNKGTKSFTLTISSLQPEDSATYYCRAREARHPWLRQWYDGAGTKVEIKQACKAHHHHHHG
B4: P3A1 G1 NAC6: P3A1 G1 loop variant VNAR, SEQ ID NO: 79 (protein)
chain: B3 chain with G26D, G30A, S44T, S52G, T63S

Test: Analytical SEC of P3A1 loop variants (Superdex 75 increase 10/300 GL, PBS pH 7.4)
Type: physicochemical
Protocol: Chromatography was carried out in PBS pH 7.4.
With B1 the “% monomer by SEC” value was 100% and the “SEC elution volume” value was 14.8 mL. For B2, the “% monomer by SEC” value was 100% and the “SEC elution volume” value was 15.47 mL. In the case of B3, the “% monomer by SEC” value is reported as 100% and the “SEC elution volume” value is reported as 17.3 mL. For B4, the “% monomer by SEC” value was 100% and the “SEC elution volume” value was 17.3 mL.
